pKa and stoichiometry N data for six substances are collected here from paper PMC4491210.

The test system of one data set is Cys. To be noted: cited from earlier work.
The next data set deals with Cys89 (UniProt position 89, FGRNGCSYCER). Briefly: UV-vis. To be noted: 25 °C; 200 mM NaCl; 10 mM Tris, 10 mM sodium citrate, 1 mM EDTA; Reduced protein referenced to oxidized protein; about 20 µM protein.
A further data set addresses Cys92 (UniProt position 92, NGCSYCERFKK). The data set is described as follows: UV-vis. To be noted: 25 °C; 200 mM NaCl; 10 mM Tris, 10 mM sodium citrate, 1 mM EDTA; Reduced protein referenced to oxidized protein; about 20 µM protein.
The target of data set [1] is HP0377 lacking its own signal sequence (residues 25-221 of native HP0377) with a C-terminal 6 His tag (Helicobacter pylori 26695). The data set is described as follows: SEC; Superdex75 HiLoad 16/600, 20 mM Tris pH 8, 150 mM NaCl, absorbance at 280 nm, calibrated with Bio-Rad Gel Filtration Standard; monomer and dimer peaks. A general note: In gel filtration, larger molecules generally elute earlier.

Data set [2] has the same target. The data set is described as follows: cross-linking; glutaraldehyde 0.001-0.1 % v/v, HP0377 2.5 mg/ml, room temperature, 20 min, 0.05 M bicine-NaOH pH 8.5, 0.1 mM DTT, 0.4 M NaCl, quenched with ethanolamine-HCl; SDS-PAGE; monomer to dimer.

For the substance CcmG (DsbE) (Escherichia coli), the pKa in the data set with Cys is listed as 6.8.
DsbA (Escherichia coli): in the data set on Cys, the pKa is 3.5.
As for DsbC (Escherichia coli), the pKa in the data set with Cys is recorded as 4.1 ± 0.3.
For “HP0377 (CcmG/DsbE/ResA-like thiol:disulfide oxidoreductase) (Helicobacter pylori 26695)”, the pKa with Cys89 is reported as 3.56 ± 0.11; with Cys92 it was 9.23 ± 0.21.
On to “HP0377 lacking its own signal sequence (residues 25-221 of native HP0377) with a C-terminal 6 His tag (domain or fragment)”, for which the stoichiometry N in data set [1] and in data set [2] was 2 each time.
For ResA (Bacillus subtilis), the pKa in the data set with Cys is given as 8.8.

Usually pKa stands for the negative logarithm of the acid dissociation constant. For orientation: stoichiometry N means a count of units in the complex or per binding partner.
